Test results: the supplement of paper PMC9732359
± gives the uncertainty stated by the source.

Test: protein stability index of a GFP-peptide fusion (yeast GPS) (PSI 1-4); higher = more stable; sorted into four equal gates, so the index is relative within each strain
In short: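 Sequencing reads from sorted gates were used to score each peptide. The library consisted of tiled 17-residue yeast protein peptides fused downstream of GFP on a Cherry-expressing plasmid, pooled and carried in yeast. Mid-log cultures in leucine-free medium were split into four equal gates by GFP/Cherry ratio, and each gate's plasmids were PCR-amplified and Illumina-sequenced. The protein stability index adds up, over all gates, the read frequency multiplied by the gate number.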

| Sequence | protein stability index (doa10∆) | protein stability index (pdr5∆) | protein stability index (san1∆) | protein stability index (ubr1∆) |
| --- | --- | --- | --- | --- |
| LEQKIHEVEEILNELQP [SMC1] | 3.04 ± 0.15 | 2.73 ± 0.22 | 2.99 ± 0.17 | 3.14 ± 0.2 |
| LERLTLVFCKHITSVPI [GRR1] | 1.47 ± 0.057 | 1.42 ± 0.084 | 1.17 ± 0.14 | 1.44 ± 0.047 |
| LERYYKEQADIYAKQQE [ARP7] | 3.29 ± 0.29 |  |  | 3.42 ± 0.14 |
| LESISHAGTAIGIMASD [PRE9] | 1.45 ± 0.14 | 2.15 ± 0.1 | 2.06 ± 0.14 | 1.5 ± 0.13 |
| LETLEHNGAPHHAIEEA [RPO21] | 3.34 ± 0.12 | 3.01 ± 0.1 | 2.94 ± 0.09 | 2.95 ± 0.19 |
| LEYEISKLKKETASFIP [YIL149C/MLP2] | 2.66 ± 0.08 | 2.8 ± 0.085 | 2.89 ± 0.06 | 2.68 ± 0.059 |
| LFGNKPTTTTGGLFGNS [YGR119C/NUP57] | 2.94 ± 0.1 | 2.79 ± 0.13 | 2.85 ± 0.18 | 3.19 ± 0.055 |
| LFQLLNALTVGDFDKFD [RPN9] | 3.1 ± 0.29 | 2.36 ± 0.26 |  | 1.8 ± 0.28 |
| LGEEHPLQVARCTKIIK [RPT1] | 2.18 ± 0.082 | 2.78 ± 0.073 | 2.75 ± 0.082 | 2.39 ± 0.085 |
| LGGEINDNEDDDEEYDY [BRR2] | 3.5 ± 0.17 | 3.34 ± 0.081 | 3.28 ± 0.065 | 3.43 ± 0.1 |
| LGICTHLGCVPIGEAGD [RIP1] | 2.21 ± 0.08 | 2.33 ± 0.076 | 1.79 ± 0.1 | 1.9 ± 0.083 |
| LGKCSRITDASLFQLSK [GRR1] | 3.04 ± 0.11 | 3.14 ± 0.11 | 3.14 ± 0.093 | 2.88 ± 0.063 |
| LGKKKATVDEFPLCVHL [RPL10] | 3.1 ± 0.19 | 2.67 ± 0.14 | 3 ± 0.29 | 2.71 ± 0.069 |
| LGNGVACDPSEIEPILM [RGR1] | 2.06 ± 0.075 | 2.19 ± 0.067 | 3.34 ± 0.071 | 2.91 ± 0.063 |
| LGNHAITIDSVVDANGC [YMR129W/POM152] | 2.42 ± 0.096 | 1.95 ± 0.08 | 2.56 ± 0.07 | 2.79 ± 0.085 |
| LGNTSSVANTPSEIPDA [SWI3] | 2.95 ± 0.059 | 3.06 ± 0.062 | 3.03 ± 0.091 | 2.98 ± 0.047 |
| LGPGIYCDPNTQEIRPV [RRP40] | 2.62 ± 0.057 | 2.78 ± 0.051 | 2.53 ± 0.057 | 2.59 ± 0.058 |
| LGSGSNVDVCVMEIGKD [PUP1] | 3.59 ± 0.089 | 3.53 ± 0.087 | 3.4 ± 0.06 | 3.51 ± 0.091 |
| LGVKNLGLCCLLDVKLA [YCG1] | 1.54 ± 0.05 | 1.58 ± 0.045 | 1.82 ± 0.063 | 1.81 ± 0.038 |
| LGVKSRLLEKSELPDIY [SNF2] | 3.12 ± 0.13 | 3.42 ± 0.15 | 3.05 ± 0.082 | 3.11 ± 0.19 |
| LGWDLDAIIPFAAIPEQ [FAS2] | 2.6 ± 0.28 | 3.14 ± 0.15 |  | 3.15 ± 0.16 |
| LHDEYLVSMRYPEDKKT [RPN3] | 2.81 ± 0.26 |  |  |  |
| LHKEQWQSGLKMYDYEE [RPN11] | 2.47 ± 0.081 | 2.8 ± 0.081 | 2.28 ± 0.096 | 2.39 ± 0.053 |
| LHKFLTKWGLINYQVDS [SWI3] | 2.46 ± 0.17 | 2.71 ± 0.12 | 2.03 ± 0.078 | 2.12 ± 0.072 |
| LHVEQLSGGQKTVCAIA [SMC3] | 1.58 ± 0.15 | 2.08 ± 0.24 | 2.09 ± 0.15 | 1.82 ± 0.067 |
| LHYCVSCAIHARIVRVR [RPS26A] | 1.17 ± 0.066 | 1.2 ± 0.083 | 1.15 ± 0.13 | 1.2 ± 0.12 |
| LHYDKDYNLRIYCYFLI [SSN8] | 1.28 ± 0.046 | 1.37 ± 0.045 | 1.37 ± 0.078 | 1.53 ± 0.046 |
